Data taken from US20040043420A1, “Method of identifying conformation-sensitive binding peptides and uses thereof” (priority 2003, published 2004).

T1: ER α, P03372
T1 chain: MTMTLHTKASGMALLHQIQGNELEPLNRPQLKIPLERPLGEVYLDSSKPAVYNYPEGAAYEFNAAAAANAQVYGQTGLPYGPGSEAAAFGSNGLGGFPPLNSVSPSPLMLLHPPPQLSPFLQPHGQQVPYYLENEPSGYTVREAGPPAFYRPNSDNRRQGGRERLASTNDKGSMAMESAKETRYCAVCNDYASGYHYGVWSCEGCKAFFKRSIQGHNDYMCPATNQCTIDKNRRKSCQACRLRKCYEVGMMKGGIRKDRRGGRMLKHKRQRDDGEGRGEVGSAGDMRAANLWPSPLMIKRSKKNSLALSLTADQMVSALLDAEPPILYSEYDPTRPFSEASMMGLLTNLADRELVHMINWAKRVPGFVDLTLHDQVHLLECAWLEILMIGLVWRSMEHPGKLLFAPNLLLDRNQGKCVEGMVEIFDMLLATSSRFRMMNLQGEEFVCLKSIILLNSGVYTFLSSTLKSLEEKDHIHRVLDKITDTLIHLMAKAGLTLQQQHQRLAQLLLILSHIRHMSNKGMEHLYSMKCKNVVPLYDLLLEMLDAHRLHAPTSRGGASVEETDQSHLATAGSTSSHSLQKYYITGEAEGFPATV

T2: ER β, Q92731
T2 chain: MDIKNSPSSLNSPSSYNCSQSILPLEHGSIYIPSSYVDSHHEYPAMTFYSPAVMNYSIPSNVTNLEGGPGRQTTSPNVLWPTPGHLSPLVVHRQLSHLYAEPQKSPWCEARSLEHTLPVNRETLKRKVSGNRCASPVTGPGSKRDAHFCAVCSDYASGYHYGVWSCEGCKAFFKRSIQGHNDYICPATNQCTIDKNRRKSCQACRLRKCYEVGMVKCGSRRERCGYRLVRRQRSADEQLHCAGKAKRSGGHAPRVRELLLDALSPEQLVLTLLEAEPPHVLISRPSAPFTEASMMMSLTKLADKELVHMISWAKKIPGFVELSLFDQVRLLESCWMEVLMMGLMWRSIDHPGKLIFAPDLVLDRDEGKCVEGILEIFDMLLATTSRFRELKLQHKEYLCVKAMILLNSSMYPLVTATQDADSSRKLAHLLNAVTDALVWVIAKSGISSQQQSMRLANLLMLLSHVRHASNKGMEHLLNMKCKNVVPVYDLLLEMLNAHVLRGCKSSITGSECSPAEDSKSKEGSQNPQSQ


Columns and labels:
ER α, P03372 = target: T1, ER α, P03372; experiment: peptide probe binding to ERα, all modulators
ER β, Q92731 = target: T2, ER β, Q92731; experiment: peptide probe binding to ERβ, all modulators

| Equiv. (ER α, P03372) | Equiv. (ER β, Q92731) | Binder |
| --- | --- | --- |
| 0% |  | SRTWESPLGTWEWSR (modifications not checked) [#13 ER] |
|  | 0% | SAPRATISHYLMGG (modifications not checked) [α/β II] |
